The text below walks through data of paper PMC4070327.

This experiment concerns the target TF^SBD-PPD (substrate-binding domain plus peptidyl prolyl isomerase domain of E. coli TF) (E. coli) (UniProt P0A850). In words: NMR relaxation dispersion.

PhoA^d-e (PhoA fragment with TF-binding sites d and e), sequence (P00634 220-310): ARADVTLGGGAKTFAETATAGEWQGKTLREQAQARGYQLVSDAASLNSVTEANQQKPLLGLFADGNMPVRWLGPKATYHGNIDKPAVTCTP

On to “PhoA^d-e (PhoA fragment with TF-binding sites d and e) (from UniProt P00634 220-310) (domain or fragment)”, for which the residence time (1/koff) was determined as 20 ms. Usually koff stands for a measure of how fast the partners let go of each other. Turning to “PhoA^a-c (PhoA fragment with TF-binding sites a to c) (from UniProt P00634 1-150) (domain or fragment)”, the off-rate constant (koff) stood at 50 s⁻¹ and the residence time (1/koff) amounted to 20 ms.
